Target: SARS-CoV-2 spike protein receptor-binding domain, wildtype (SARS-CoV-2) (UniProt P0DTC2)
Assay: ITC

CC12.1 single-chain fragment variable (scFv)
Kd: 28 nM
dH: -4.8 kcal/mol

From paper PMC8445900
